Test results taken from paper PMC5040961.

Target: T1, FLAG-tagged Lgl1 (Lethal giant larvae 1), Q80Y17
T1 chain: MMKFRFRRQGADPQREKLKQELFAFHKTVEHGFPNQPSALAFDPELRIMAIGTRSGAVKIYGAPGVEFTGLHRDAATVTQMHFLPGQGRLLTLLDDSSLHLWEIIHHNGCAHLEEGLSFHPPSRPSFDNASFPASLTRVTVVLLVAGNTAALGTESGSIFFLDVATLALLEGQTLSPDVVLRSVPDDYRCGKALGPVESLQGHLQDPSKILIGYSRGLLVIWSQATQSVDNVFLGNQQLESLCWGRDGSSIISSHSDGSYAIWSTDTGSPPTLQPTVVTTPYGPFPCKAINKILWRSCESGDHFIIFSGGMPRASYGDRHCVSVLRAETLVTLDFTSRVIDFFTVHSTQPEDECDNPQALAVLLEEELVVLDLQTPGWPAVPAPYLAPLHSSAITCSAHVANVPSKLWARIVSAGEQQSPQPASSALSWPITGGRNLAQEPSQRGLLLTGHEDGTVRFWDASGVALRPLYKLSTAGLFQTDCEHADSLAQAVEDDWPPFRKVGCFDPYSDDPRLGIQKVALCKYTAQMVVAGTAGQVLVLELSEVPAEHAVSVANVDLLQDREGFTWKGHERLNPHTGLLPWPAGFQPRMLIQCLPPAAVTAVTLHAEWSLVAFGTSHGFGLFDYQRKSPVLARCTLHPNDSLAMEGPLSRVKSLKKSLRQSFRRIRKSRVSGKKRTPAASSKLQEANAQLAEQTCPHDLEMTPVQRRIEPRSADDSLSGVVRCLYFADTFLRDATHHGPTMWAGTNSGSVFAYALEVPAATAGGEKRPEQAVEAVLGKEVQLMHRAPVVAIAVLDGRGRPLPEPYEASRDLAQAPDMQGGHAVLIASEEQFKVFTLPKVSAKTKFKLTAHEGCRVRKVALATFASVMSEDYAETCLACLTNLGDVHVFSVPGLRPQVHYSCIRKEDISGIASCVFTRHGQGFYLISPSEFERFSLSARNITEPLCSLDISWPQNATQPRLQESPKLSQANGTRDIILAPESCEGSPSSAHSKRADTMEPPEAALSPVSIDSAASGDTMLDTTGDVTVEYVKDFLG
Experiment: co-immunoprecipitation (FLAG IP, western blot with HA and FLAG antibodies, quantified)
Settings: chain shown with the change; HEK293T cell lysates; n = 3; parent: est. 1.0; read off a plot

B1: HA-PKCζ-wt, Q05513 K225R; K284R; K378R (protein)
chain: MPSRTGPKMEGSGGRVRLKAHYGGDIFITSVDAATTFEELCEEVRDMCRLHQQHPLTLKWVDSEGDPCTVSSQMELEEAFRLARQCRDEGLIIHVFPSTPEQPGLPCPGEDKSIYRRGARRWRKLYRANGHLFQAKRFNRRAYCGQCSERIWGLARQGYRCINCKLLVHKRCHGLVPLTCRKHMDSVMPSQEPPVDDKNEDADLPSEETDGIAYISSSRKHDSIRDDSEDLKPVIDGMDGIKISQGLGLQDFDLIRVIGRGSYAKVLLVRLKKNDQIYAMKVVRKELVHDDEDIDWVQTEKHVFEQASSNPFLVGLHSCFQTTSRLFLVIEYVNGGDLMFHMQRQRKLPEEHARFYAAEICIALNFLHERGIIYRDLRLDNVLLDADGHIKLTDYGMCKEGLGPGDTTSTFCGTPNYIAPEILRGEEYGFSVDWWALGVLMFEMMAGRSPFDIITDNPDMNTEDYLFQVILEKPIRIPRFLSVKASHVLKGFLNKDPKERLGCRPQTGFSDIKSHAFFRSIDWDLLEKKQALPPFQPQITDDYGLDNFDTQFTSEPVQLTPDDEDAIKRIDQSEFEGFEYINPLLLSTEESV
Question: Which ratio to parent does the source give for B1 here?
Answer: Its ratio to parent is 2.4.
